Test results from US20240181007A1, “COMPOSITIONS AND METHODS FOR TREATING PULMONARY HYPERTENSION” (Acceleron Pharma Inc., priority 2021, published 2024).

Tests used:
[1] = molecular target: T1, Activin A (Homo sapiens, UniProt P08476); assay: Biacore-based binding assay (surface plasmon resonance), activin A
T1 sequence (P08476 311-426): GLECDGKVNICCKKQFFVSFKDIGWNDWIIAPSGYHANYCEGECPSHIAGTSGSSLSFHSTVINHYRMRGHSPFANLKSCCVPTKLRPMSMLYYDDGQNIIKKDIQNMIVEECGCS
Description: (§1) To determine ligand binding profiles of variant ActRIIB-Fc homodimers, a Biacore™-based binding assay was used to compare ligand binding kinetics of certain variant ActRIIB-Fc polypeptides. ActRIIB-Fc polypeptides to be tested were independently captured onto the system using an anti-Fc antibody. Ligands were then injected and allowed to flow over the captured receptor protein. ActRIIB-G1Fc was used as the control polypeptide.
as §1, with “protein.” for “protein. ActRIIB-G1Fc was used as the control polypeptide.”
(§2) A Biacore™-based binding assay was used to compare the ligand binding kinetics of an ActRIIB-Fc:ActRIIB(L79E)-Fc heterodimer with those of unmodified ActRIIB-Fc homodimer. Fusion proteins were captured onto the system using an anti-Fc antibody. Ligands were then injected and allowed to flow over the captured receptor protein at 37° C. Results are summarized in the table below, in which ligand off-rates (kd) most indicative of effective ligand traps are denoted in bold.

[2] = molecular target: T2, Activin B (Homo sapiens, UniProt P09529); assay: Biacore-based binding assay (surface plasmon resonance), activin B
T2 sequence (P09529 293-407): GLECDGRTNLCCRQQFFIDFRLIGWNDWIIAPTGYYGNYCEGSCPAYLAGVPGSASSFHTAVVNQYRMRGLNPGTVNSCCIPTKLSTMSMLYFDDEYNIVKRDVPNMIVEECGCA
Description: as §1, §2

[3] = molecular target: T3, GDF3 (Homo sapiens, UniProt Q9NR23); assay: Biacore-based binding assay (surface plasmon resonance), GDF3; conditions: 37° C., capture by anti-Fc antibody
T3 sequence (Q9NR23 251-364): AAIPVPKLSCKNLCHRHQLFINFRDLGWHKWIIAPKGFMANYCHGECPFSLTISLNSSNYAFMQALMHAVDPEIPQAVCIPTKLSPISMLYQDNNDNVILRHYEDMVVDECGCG
Description: as §2

[4] = molecular target: T4, GDF8 (Homo sapiens, UniProt O14793); assay: Biacore-based binding assay (surface plasmon resonance), GDF8
T4 sequence (O14793 267-375): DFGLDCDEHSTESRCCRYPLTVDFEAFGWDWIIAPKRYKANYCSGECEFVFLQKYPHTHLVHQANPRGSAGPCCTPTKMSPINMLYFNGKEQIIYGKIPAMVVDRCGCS
Description: as §1, §2

[5] = molecular target: T5, GDF11 (Homo sapiens, UniProt O95390); assay: Biacore-based binding assay (surface plasmon resonance), GDF11
T5 sequence (O95390 299-407): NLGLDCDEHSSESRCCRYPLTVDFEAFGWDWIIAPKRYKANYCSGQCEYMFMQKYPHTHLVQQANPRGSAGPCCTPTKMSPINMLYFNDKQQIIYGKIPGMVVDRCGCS
Description: as §1
as §1, with “protein.” for “protein. ActRIIB-G1Fc was used as the control polypeptide.”
as §2

[6] = molecular target: T6, BMP6 (Homo sapiens, UniProt P22004); assay: Biacore-based binding assay (surface plasmon resonance), BMP6; conditions: 37° C., capture by anti-Fc antibody
T6 sequence (P22004 375-513): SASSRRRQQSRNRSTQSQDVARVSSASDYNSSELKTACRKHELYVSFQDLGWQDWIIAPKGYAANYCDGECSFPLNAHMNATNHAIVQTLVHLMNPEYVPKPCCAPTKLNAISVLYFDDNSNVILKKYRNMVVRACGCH
Description: as §2

[7] = molecular target: T7, BMP9 (Homo sapiens, UniProt Q9UK05); assay: Biacore-based binding assay (surface plasmon resonance), BMP9
T7 sequence (Q9UK05 320-429): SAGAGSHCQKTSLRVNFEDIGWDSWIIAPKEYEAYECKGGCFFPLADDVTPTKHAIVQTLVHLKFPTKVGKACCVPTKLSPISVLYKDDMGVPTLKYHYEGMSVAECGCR
Description: as §1
as §1, with “protein.” for “protein. ActRIIB-G1Fc was used as the control polypeptide.”
as §2

[8] = molecular target: T8, BMP10 (Homo sapiens, UniProt O95393); assay: Biacore-based binding assay (surface plasmon resonance), BMP10
T8 sequence (O95393 317-424): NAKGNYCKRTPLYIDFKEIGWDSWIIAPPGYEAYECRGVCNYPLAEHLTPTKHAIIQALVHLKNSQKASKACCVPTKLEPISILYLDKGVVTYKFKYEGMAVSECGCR
Description: as §1, §2

[9] = molecular target: T9, activin A (UniProt P08476 311-426); assay: cell-based or functional assay
T9 construct: Soluble ligand injected in SPR or added in the reporter assay
T9 sequence (looked up): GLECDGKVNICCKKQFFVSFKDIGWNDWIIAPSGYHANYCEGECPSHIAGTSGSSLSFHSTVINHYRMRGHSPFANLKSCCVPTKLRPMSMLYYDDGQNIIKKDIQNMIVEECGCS

[10] = molecular target: T10, GDF11 (UniProt O95390 299-407); assay: cell-based or functional assay
T10 construct: also called Growth and differentiation factor-11; BMP11
T10 sequence (looked up): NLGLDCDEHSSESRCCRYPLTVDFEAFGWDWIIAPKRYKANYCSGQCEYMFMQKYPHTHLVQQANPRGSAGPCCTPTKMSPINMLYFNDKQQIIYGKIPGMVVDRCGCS

[11] = molecular target: T11, BMP9 (UniProt Q9UK05 320-429); assay: cell-based or functional assay
T11 sequence (looked up): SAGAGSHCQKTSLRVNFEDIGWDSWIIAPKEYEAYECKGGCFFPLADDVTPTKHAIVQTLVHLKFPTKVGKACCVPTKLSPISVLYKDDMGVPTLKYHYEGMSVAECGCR

[12] = 37° C., capture by anti-Fc antibody
[13] = 37° C., capture by anti-Fc antibody, Transient*: indeterminate due to transient nature of interaction
[14] = SPR 37° C., compared to ActRIIB-G1Fc / ActRIIB-Fc homodimer

## ActRIIB-Fc homodimer: unmodified ActRIIB-Fc homodimer, comparator of the heterodimer in Table 6
[1]; [12]
  ka Activin A: 7.4e+06 M⁻¹ s⁻¹
  kd Activin A: 0.00019 s⁻¹
[2]; [12]
  ka Activin B: 8.1e+06 M⁻¹ s⁻¹
  kd Activin B: 6.6e-05 s⁻¹
[3]
  ka GDF3: 1.4e+06 M⁻¹ s⁻¹
  kd GDF3: 0.0022 s⁻¹
[4]; [12]
  ka GDF8: 3.8e+06 M⁻¹ s⁻¹
  kd GDF8: 0.00026 s⁻¹
[5]; [12]
  ka GDF11: 4.1e+07 M⁻¹ s⁻¹
  kd GDF11: 0.00017 s⁻¹
[6]
  ka BMP6: 1.3e+08 M⁻¹ s⁻¹
  kd BMP6: 0.0074 s⁻¹
[7]; [13]
  ka BMP9: 5e+06 M⁻¹ s⁻¹
  kd BMP9: 0.0013 s⁻¹
[8]; [12]
  ka BMP10: 5.1e+07 M⁻¹ s⁻¹
  kd BMP10: 0.0002 s⁻¹

## K55R (homodimeric ActRIIB-Fc construct) (Fc fusion)
[9]
  IC50 (ng/ml), A204 CAGA12 luciferase reporter assay: 206 ng/mL
[10]
  IC50 (ng/ml), A204 CAGA12 luciferase reporter assay: 318 ng/mL
[11]
  IC50 (ng/ml), A204 CAGA12 luciferase reporter assay: 777 ng/mL

## K55D (homodimeric ActRIIB-Fc construct) (Fc fusion)
[9]
  IC50 (ng/ml), A204 CAGA12 luciferase reporter assay: 396 ng/mL
[10]
  IC50 (ng/ml), A204 CAGA12 luciferase reporter assay: 365 ng/mL
[11]
  IC50 (ng/ml), A204 CAGA12 luciferase reporter assay: 5500 ng/mL

## E52K (homodimeric ActRIIB-Fc construct) (Fc fusion)
[9]
  IC50 (ng/ml), A204 CAGA12 luciferase reporter assay: 762 ng/mL
[10]
  IC50 (ng/ml), A204 CAGA12 luciferase reporter assay: 296 ng/mL
[11]
  IC50 (ng/ml), A204 CAGA12 luciferase reporter assay: 10000 ng/mL

## L79H-F82K: homodimeric ActRIIB-G1Fc fusion with L79H and F82K substitutions; mature SEQ ID NO: 347
[1]; SPR 37° C., FIGS. 8A and 8B
  activin A binding compared to ActRIIB-G1Fc (in words): significant decrease
[2]; [14]
  affinity for activin B compared to unmodified ActRIIB-Fc (in words): relatively high affinity for activin B
[4]; [14]
  GDF8 binding compared to unmodified ActRIIB-Fc (in words): significant decrease in GDF8 and GDF11 binding
[5]; [14]
  GDF11 binding compared to unmodified ActRIIB-Fc (in words): significant decrease in GDF8 and GDF11 binding
[7]; [14]
  binding to BMP9 compared to unmodified ActRIIB-Fc (in words): decrease in binding to BMP9
[8]; SPR 37° C., FIGS. 8A and 8B
  BMP10 binding compared to ActRIIB-G1Fc (in words): decrease in BMP10 binding

## A24N (homodimeric ActRIIB-Fc construct) (Fc fusion)
[9]
  IC50 (ng/ml), A204 CAGA12 luciferase reporter assay: 128 ng/mL
[10]
  IC50 (ng/ml), A204 CAGA12 luciferase reporter assay: 99 ng/mL
[11]
  IC50 (ng/ml), A204 CAGA12 luciferase reporter assay: 409 ng/mL
